Data published in patent publication US7169559B2, “LDL receptor-related proteins 1 and 2 and treatment of bone or cartilage conditions” (Fonterra Corporate Research and Development Ltd., priority 2002, dated 2007).

B1: Lactoferrin: an 80 kDa glycoprotein present in milk and epithelial secretions; osteoblast growth factor present in fractionated bovine milk (protein, UniProt P24627 20-708, looked up)
Lactotransferrin: APRKNVRWCTISQPEWFKCRRWQWRMKKLGAPSITCVRRAFALECIRAIAEKKADAVTLDGGMVFEAGRDPYKLRPVAAEIYGTKESPQTHYYAVAVVKKGSNFQLDQLQGRKSCHTGLGRSAGWIIPMGILRPYLSWTESLEPLQGAVAKFFSASCVPCIDRQAYPNLCQLCKGEGENQCACSSREPYFGYSGAFKCLQDGAGDVAFVKETTVFENLPEKADRDQYELLCLNNSRAPVDAFKECHLAQVPSHAVVARSVDGKEDLIWKLLSKAQEKFGKNKSRSFQLFGSPPGQRDLLFKDSALGFLRIPSKVDSALYLGSRYLTTLKNLRETAEEVKARYTRVVWCAVGPEEQKKCQQWSQQSGQNVTCATASTTDDCIVLVLKGEADALNLDGGYIYTAGKCGLVPVLAENRKSSKHSSLDCVLRPTEGYLAVAVVKKANEGLTWNSLKDKKSCHTAVDRTAGWNIPMGLIVNQTGSCAFDEFFSQSCAPGADPKSRLCALCAGDDQGLDKCVPNSKEKYYGYTGAFRCLAEDVGDVAFVKNDTVWENTNGESTADWAKNLNREDFRLLCLDGTRKPVTEAQSCHLAVAPNHAVVSRSDRAAHVKQVLLHQQALFGKNGKNCPDKFCLFKSETKNLLFNDNTECLAKLGGRPTYEEYLGTEYVTAIANLKKCSTSPLLEACAFLTR
B2: RAP: the LRP-1/2-specific inhibitor, receptor-associated protein (RAP) (protein, UniProt P30533 35-357, looked up)
Alpha-2-macroglobulin …: YSREKNQPKPSPKRESGEEFRMEKLNQLWEKAQRLHLPPVRLAELHADLKIQERDELAWKKLKLDGLDEDGEKEARLIRNLNVILAKYGLDGKKDARQVTSNSLSGTQEDGLDDPRLEKLWHKAKTSGKFSGEELDKLWREFLHHKEKVHEYNVLLETLSRTEEIHENVISPSDLSDIKGSVLHSRHTELKEKLRSINQGLDRLRRVSHQGYSTEAEFEEPRVIDLWDLAQSANLTDKELEAFREELKHFEAKIEKHNHYQKQLEIAHEKLRHAESVGDGERVSRSREKHALLEGRTKELGYTVKKHLQDLSGRISRARHNEL

Legend:
LRP-1 = LRP-1 (Homo sapiens, UniProt Q07954); assay: binding of lactoferrin to LRP-1
primary rat osteoblasts = assay: apoptosis induced by serum withdrawal; type: cell-based
Procedure: (§1) Osteoblasts were isolated from 20-day old fetal rat calvariae as previously described (Cornish et al. (1999) Amer. J. Physiol-Endocrinol. Metab. 277:E779–E783). Briefly, calvariae were excised and the frontal and parietal bones, free of suture and periosteal tissue, were collected. After washing, the calvariae were treated twice with 3 mL of 1 mg/mL collagenase for 7 minutes at 37° C. After discarding the supernatants from these two digestions, the calvariae were treated a further twice with 3 mL of 2 mg/mL collagenase (30 mins, 37° C.). The supernatants of the latter two digestions were pooled, centrifuged, and the cells washed. Cells were grown to confluence and then subcultured into 24 well plates. Cells were growth arrested in minimum essential medium (MEM)/0.1% bovine serum albumin for 24 h before harvest.

LRP-2/megalin = LRP-2/megalin (Homo sapiens, UniProt P98164); assay: binding of lactoferrin to LRP-2
Chain of LRP-2/megalin (P98164 26-4655): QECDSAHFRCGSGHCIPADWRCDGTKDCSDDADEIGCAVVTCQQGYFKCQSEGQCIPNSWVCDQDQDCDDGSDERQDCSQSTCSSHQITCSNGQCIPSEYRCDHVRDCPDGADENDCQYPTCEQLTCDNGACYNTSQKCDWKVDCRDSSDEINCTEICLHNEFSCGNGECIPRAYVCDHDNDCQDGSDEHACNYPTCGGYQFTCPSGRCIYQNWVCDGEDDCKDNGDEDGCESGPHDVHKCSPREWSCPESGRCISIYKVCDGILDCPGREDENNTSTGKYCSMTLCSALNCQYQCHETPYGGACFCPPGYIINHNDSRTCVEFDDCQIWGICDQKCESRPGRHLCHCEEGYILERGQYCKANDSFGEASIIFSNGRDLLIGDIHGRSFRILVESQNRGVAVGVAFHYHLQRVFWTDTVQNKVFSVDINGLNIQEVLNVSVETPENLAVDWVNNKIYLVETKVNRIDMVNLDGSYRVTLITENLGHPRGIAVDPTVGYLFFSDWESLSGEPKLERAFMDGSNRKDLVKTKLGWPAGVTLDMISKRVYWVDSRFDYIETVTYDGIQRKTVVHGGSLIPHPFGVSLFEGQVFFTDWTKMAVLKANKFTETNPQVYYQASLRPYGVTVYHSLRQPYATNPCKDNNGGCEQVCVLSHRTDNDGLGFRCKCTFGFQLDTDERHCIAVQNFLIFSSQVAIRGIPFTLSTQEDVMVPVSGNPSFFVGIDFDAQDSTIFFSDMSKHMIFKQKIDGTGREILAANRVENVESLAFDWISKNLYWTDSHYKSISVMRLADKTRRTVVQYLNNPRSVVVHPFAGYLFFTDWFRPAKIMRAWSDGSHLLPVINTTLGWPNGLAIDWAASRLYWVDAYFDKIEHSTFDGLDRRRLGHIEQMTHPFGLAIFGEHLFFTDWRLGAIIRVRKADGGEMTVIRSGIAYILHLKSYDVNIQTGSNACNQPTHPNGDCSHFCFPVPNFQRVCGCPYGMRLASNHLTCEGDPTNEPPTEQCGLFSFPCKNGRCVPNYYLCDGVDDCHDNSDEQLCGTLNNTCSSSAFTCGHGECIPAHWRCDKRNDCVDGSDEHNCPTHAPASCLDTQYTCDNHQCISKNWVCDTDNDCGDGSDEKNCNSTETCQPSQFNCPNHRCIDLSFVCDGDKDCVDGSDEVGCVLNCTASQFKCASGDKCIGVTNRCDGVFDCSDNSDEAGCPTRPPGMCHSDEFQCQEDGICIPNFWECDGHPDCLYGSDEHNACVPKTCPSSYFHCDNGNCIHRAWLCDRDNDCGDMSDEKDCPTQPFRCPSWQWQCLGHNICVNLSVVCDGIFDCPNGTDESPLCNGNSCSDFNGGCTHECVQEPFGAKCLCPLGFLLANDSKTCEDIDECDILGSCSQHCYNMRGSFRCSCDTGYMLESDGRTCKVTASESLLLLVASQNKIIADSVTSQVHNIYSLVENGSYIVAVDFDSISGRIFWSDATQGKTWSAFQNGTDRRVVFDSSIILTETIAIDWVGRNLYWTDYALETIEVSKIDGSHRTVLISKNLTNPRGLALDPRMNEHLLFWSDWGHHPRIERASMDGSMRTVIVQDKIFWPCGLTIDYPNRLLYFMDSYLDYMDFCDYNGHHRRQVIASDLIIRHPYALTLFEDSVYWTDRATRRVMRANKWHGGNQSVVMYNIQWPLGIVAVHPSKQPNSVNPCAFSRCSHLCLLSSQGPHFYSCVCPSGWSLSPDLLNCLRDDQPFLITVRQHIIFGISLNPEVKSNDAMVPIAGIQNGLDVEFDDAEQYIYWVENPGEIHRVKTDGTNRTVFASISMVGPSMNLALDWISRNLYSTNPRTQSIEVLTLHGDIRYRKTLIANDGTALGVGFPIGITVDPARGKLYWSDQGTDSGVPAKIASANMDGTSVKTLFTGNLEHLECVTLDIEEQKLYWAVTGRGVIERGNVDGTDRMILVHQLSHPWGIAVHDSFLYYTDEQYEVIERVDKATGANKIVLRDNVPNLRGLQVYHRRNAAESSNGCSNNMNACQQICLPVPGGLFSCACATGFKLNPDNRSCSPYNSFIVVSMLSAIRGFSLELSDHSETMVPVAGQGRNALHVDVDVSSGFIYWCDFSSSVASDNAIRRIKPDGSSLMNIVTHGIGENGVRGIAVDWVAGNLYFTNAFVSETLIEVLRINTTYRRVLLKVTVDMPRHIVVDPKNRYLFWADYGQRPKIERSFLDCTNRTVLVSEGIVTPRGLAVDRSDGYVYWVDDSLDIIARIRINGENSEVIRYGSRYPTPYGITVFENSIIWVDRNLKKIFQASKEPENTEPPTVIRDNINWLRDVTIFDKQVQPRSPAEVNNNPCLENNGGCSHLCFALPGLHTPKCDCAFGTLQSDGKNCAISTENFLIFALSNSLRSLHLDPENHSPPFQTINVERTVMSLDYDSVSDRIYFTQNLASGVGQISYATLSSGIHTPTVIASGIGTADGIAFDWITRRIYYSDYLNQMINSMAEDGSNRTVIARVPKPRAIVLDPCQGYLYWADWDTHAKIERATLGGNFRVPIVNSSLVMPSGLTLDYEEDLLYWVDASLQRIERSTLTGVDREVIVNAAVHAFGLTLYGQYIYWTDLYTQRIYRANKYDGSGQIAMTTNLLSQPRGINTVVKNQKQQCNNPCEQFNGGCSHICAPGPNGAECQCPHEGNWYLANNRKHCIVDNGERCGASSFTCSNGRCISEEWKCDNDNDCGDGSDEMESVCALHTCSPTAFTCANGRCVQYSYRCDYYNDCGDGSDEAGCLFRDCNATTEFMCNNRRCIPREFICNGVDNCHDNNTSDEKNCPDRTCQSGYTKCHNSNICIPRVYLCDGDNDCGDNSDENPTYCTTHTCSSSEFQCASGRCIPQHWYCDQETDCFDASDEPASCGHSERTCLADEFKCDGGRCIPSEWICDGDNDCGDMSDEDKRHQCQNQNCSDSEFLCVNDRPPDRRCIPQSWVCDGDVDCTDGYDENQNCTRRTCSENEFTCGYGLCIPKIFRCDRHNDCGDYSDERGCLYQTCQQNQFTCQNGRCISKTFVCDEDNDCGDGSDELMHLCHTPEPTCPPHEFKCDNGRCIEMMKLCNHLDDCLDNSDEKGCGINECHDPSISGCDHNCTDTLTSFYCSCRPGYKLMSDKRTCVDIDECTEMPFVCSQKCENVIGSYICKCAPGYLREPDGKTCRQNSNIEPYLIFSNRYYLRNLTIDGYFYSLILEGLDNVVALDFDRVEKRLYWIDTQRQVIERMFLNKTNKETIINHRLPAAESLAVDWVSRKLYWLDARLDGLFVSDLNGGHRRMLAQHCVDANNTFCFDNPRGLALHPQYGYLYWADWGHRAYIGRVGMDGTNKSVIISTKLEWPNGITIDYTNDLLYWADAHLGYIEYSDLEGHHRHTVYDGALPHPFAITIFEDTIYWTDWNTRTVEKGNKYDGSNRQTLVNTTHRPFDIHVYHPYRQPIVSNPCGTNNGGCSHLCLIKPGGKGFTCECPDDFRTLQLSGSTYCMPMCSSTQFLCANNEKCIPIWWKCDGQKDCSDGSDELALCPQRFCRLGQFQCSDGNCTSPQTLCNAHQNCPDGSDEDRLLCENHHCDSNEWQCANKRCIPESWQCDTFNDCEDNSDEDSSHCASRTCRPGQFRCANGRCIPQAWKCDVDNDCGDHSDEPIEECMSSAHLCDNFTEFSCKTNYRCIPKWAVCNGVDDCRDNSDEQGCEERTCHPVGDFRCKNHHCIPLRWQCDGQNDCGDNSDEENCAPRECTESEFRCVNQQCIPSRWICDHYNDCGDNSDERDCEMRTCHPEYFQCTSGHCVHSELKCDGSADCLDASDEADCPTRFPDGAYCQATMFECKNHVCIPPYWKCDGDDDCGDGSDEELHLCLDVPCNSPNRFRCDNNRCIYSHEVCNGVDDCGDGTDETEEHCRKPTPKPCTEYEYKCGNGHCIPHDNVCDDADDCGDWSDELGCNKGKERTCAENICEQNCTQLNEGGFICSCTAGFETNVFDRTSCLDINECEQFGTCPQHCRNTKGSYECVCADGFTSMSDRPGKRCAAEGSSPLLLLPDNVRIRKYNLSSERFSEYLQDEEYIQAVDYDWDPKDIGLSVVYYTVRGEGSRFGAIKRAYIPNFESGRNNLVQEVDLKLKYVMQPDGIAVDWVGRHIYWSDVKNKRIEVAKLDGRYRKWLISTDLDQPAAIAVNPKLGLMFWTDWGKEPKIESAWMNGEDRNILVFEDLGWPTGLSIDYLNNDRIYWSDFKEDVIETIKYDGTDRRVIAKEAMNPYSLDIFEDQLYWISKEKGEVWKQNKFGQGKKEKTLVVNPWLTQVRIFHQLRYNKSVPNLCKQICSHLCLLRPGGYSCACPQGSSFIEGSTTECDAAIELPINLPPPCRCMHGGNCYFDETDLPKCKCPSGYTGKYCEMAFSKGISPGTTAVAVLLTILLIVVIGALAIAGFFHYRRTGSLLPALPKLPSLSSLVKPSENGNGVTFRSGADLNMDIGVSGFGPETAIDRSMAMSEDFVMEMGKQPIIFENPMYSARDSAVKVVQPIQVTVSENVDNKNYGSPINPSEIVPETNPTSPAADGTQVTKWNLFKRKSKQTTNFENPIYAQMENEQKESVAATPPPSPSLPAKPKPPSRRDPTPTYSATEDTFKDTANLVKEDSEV

osteoclastogenesis = assay: murine bone marrow culture assay of osteoclastogenesis; type: cell-based
[1] = unilateral local hemicalvarial injection in adult mice; type: in vivo
LRP-1-null fibroblasts = assay: proliferation in LRP-1-null versus LRP-1+/+ fibroblasts; type: cell-based
SaOS-2 cells = assay: proliferation in SaOS-2 cells; type: cell-based, human; conditions: only LRP-1 is expressed in SaOS-2 cells
Procedure: (§2) The human osteoblast-like osteosarcoma cell line SaOS-2 was maintained in DMEM (GIBCO 12100-046) supplemented with 2.2 g/L NaHCO3, 10% FBS, and 10 ml/L penicillin-streptomycin (GIBCO 15140-122). Cells were plated in 75 cm^2 flasks and when confluent used for total RNA isolation or proliferation assays.

chondrocytes = assay: chondrocyte mitogenesis; type: cell-based
mature osteoclasts = assay: bone-resorbing activity of mature osteoclasts; type: cell-based
[2] = tested on: p42/44 MAP kinase signaling pathway; assay: p42/44 MAP kinase signaling / phosphorylation in osteoblastic cells; type: cell-based
[3] = tested on: primary rat osteoblastic cells; assay: endocytosis of lactoferrin observed under confocal microscopy; type: cell-based
Procedure: as §1

osteoblast = osteoblast differentiation / mineralized bone nodules in long-term osteoblast cultures; type: cell-based
[4] = tested on: cultured osteoblastic cells; assay: osteoblast proliferation (mitogenic/osteogenic effect); type: cell-based, rat, mouse, and human
Procedure: as §1, §2

Molecule	binding to LRP-1 (LRP-1)	apoptosis induced by serum withdrawal (primary rat osteoblasts)	binding to LRP-2/megalin (LRP-2/megalin)	osteoclastogenesis (osteoclastogenesis)	bone area [1]	indices of bone formation [1]	proliferation in LRP-1-null fibroblasts compared with LRP-1+/+ cells (LRP-1-null fibroblasts)	proliferation in SaOS-2 cells (SaOS-2 cells)	mitogenic to chondrocytes (chondrocytes)	bone-resorbing activity of mature osteoclasts (mature osteoclasts)	activation of p42/44 MAP kinase signaling pathway ([2]; osteoblastic cells)	endocytosis by primary rat osteoblastic cells [3]	osteoblast differentiation (osteoblast)	number of mineralized bone nodules (osteoblast; long-term osteoblast cultures)	proliferation of cultured osteoblastic cells ([4]; cells of rat, mouse, and human origin)	effect on lactoferrin-induced MAP kinase phosphorylation ([2]; in the presence of lactoferrin)	effect on endocytosis of lactoferrin ([3]; primary rat osteoblastic cells)	effect on lactoferrin-induced osteoblast proliferation ([4]; in the presence of lactoferrin)
B1	has been found to bind	inhibits apoptosis	has been found to bind	strongly inhibits osteoclastogenesis	dose-dependent and substantial increases	dose-dependent and substantial increases	substantially less marked	induces proliferation	mitogenic to chondrocytes	does not affect	activates the p42/44 MAP kinase signaling pathway	is endocytosed	capable of inducing osteoblast differentiation	significantly increase	stimulates proliferation of cultured osteoblastic cells of rat, mouse, and human origin potently and in a dose-dependent manner	–	–	–
B2	–	–	–	–	–	–	–	–	–	–	–	–	–	–	–	blocked	abrogates this process	blocked
